Measured values taken from article PMC5050587, “Enzymatic fine-tuning for 2-(6-hydroxynaphthyl) β-D-xylopyranoside synthesis catalyzed by the recombinant β-xylosidase BxTW1 from Talaromyces amestolkiae” (Microbial Cell Factories, 2016).

Legend:
[1] = molecular target: recombinant β-xylosidase BxTW1 from Talaromyces amestolkiae (Talaromyces amestolkiae); assay: SEC; Superose 12 HR 10/30 column, molecular mass in native conditions, performed as described previously [20]
[2] = molecular target: T1, β-xylosidase BxTW1 (rBxTW1) (Talaromyces amestolkiae, UniProt A0A0H3W535); assay: competitive product inhibition of pNPX hydrolysis by purified enzyme; assay type: biochemical
T1 construct: mature BxTW1 without its signal peptide, expressed in Pichia pastoris GS115
T1 sequence (A0A0H3W535 22-797): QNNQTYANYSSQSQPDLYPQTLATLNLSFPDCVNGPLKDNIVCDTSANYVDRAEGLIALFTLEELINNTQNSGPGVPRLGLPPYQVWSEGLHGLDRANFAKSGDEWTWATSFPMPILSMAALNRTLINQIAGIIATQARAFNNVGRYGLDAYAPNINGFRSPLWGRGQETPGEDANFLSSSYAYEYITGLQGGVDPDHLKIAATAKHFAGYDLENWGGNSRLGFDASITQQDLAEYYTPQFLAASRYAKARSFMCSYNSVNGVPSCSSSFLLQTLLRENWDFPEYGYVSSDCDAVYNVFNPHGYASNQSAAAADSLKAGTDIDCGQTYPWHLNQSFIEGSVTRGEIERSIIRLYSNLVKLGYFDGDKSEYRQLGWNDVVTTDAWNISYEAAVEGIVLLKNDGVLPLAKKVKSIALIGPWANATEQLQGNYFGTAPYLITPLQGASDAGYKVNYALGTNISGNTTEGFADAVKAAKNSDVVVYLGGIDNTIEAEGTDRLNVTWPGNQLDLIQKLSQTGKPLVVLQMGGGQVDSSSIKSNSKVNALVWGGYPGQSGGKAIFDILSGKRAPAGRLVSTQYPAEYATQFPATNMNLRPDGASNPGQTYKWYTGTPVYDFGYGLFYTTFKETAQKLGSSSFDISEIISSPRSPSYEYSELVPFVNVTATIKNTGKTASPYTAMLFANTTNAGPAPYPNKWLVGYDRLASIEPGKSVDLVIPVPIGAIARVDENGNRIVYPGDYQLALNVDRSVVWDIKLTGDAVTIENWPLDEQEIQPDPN

[3] = substrate: OC1OC[C@@H](O[C@@H]2OC[C@@H](O[C@@H]3OC[C@@H](O[C@@H]4OC[C@@H](O[C@@H]5OC[C@@H](O)[C@H](O)[C@H]5O)[C@H](O)[C@H]4O)[C@H](O)[C@H]3O)[C@H](O)[C@H]2O)[C@H](O)[C@H]1O; assay: Michaelis-Menten kinetics of purified enzyme (Km); assay type: biochemical, Talaromyces amestolkiae
[4] = substrate: OC1OC[C@@H](O[C@@H]2OC[C@@H](O[C@@H]3OC[C@@H](O[C@@H]4OC[C@@H](O)[C@H](O)[C@H]4O)[C@H](O)[C@H]3O)[C@H](O)[C@H]2O)[C@H](O)[C@H]1O; assay: Michaelis-Menten kinetics of purified enzyme (Km); assay type: biochemical, Talaromyces amestolkiae
[5] = substrate: OC1OC[C@@H](O[C@@H]2OC[C@@H](O[C@@H]3OC[C@@H](O[C@@H]4OC[C@@H](O[C@@H]5OC[C@@H](O[C@@H]6OC[C@@H](O)[C@H](O)[C@H]6O)[C@H](O)[C@H]5O)[C@H](O)[C@H]4O)[C@H](O)[C@H]3O)[C@H](O)[C@H]2O)[C@H](O)[C@H]1O; assay: Michaelis-Menten kinetics of purified enzyme (Km); assay type: biochemical, Talaromyces amestolkiae
[6] = substrate: O=[N+]([O-])c1ccc(O[C@@H]2OC[C@H](O)[C@H](O)[C@H]2O)cc1; assay: Michaelis-Menten kinetics of purified enzyme (Km); assay type: biochemical, Talaromyces amestolkiae
[7] = substrate: OC1OC[C@@H](O[C@@H]2OC[C@@H](O)[C@H](O)[C@H]2O)[C@H](O)[C@H]1O; assay: Michaelis-Menten kinetics of purified enzyme (Km); assay type: biochemical, Talaromyces amestolkiae
[8] = substrate: O=[N+]([O-])c1ccc(O[C@@H]2O[C@@H](CO)[C@H](O)[C@H]2O)cc1; assay: Michaelis-Menten kinetics of purified enzyme (Km); assay type: biochemical, Talaromyces amestolkiae
[9] = substrate: OC1OC[C@@H](O[C@@H]2OC[C@@H](O[C@@H]3OC[C@@H](O)[C@H](O)[C@H]3O)[C@H](O)[C@H]2O)[C@H](O)[C@H]1O; assay: Michaelis-Menten kinetics of purified enzyme (Km); assay type: biochemical, Talaromyces amestolkiae
[10] = substrate: O=[N+]([O-])c1ccc(O[C@@H]2OC[C@@H](O)[C@H](O)[C@H]2O)cc1; assay: Michaelis-Menten kinetics of purified enzyme (Km); assay type: biochemical, Talaromyces amestolkiae

recombinant β-xylosidase BxTW1 from Talaromyces amestolkiae (enzyme)
stoichiometry N [1]: 2

OC1OC[C@@H](O)[C@H](O)[C@H]1O (stereo partly shown) [xylose]
Ki [2]: 1700 ± 300 µM

B1: β-xylosidase BxTW1 (rBxTW1) (Talaromyces amestolkiae) (protein)
chain: T1 sequence (A0A0H3W535 22-797)
notes: mature BxTW1 without its signal peptide, expressed in Pichia pastoris GS115
Km [3]: 220 ± 10 µM
Vmax [3]: 4.48 µmol/min/mg
kcat [3]: 14.9 s⁻¹
kcat/Km [3]: 68000 M⁻¹ s⁻¹
Km [4]: 200 ± 10 µM
Vmax [4]: 6.34 µmol/min/mg
kcat [4]: 21.1 s⁻¹
kcat/Km [4]: 100000 M⁻¹ s⁻¹
Km [5]: 210 ± 20 µM
Vmax [5]: 4.27 µmol/min/mg
kcat [5]: 14.2 s⁻¹
kcat/Km [5]: 69000 M⁻¹ s⁻¹
Km [6]: 1600 ± 100 µM
Vmax [6]: 8.3 µmol/min/mg
kcat [6]: 28 s⁻¹
kcat/Km [6]: 17000 M⁻¹ s⁻¹
Km [7]: 510 ± 30 µM
Vmax [7]: 26.4 µmol/min/mg
kcat [7]: 87.9 s⁻¹
kcat/Km [7]: 170000 M⁻¹ s⁻¹
Km [8]: 4300 ± 300 µM
Vmax [8]: 14.9 µmol/min/mg
kcat [8]: 49.8 s⁻¹
kcat/Km [8]: 12000 M⁻¹ s⁻¹
Km [9]: 190 ± 10 µM
Vmax [9]: 9 µmol/min/mg
kcat [9]: 30 s⁻¹
kcat/Km [9]: 160000 M⁻¹ s⁻¹
Km [10]: 200 ± 10 µM
Vmax [10]: 20.8 µmol/min/mg
kcat [10]: 69.3 s⁻¹
kcat/Km [10]: 336000 M⁻¹ s⁻¹
